Measured values reported in the supplement of paper PMC7877785.
± gives the uncertainty stated by the source.

Assay: self-splicing fitness, log relative to wild type (ln ratio); higher = more splicing; Tetrahymena group I intron in knt gene, E. coli kanamycin selection, DiMSum; sequences stand for … in CUCUCU…GGAGGGAAAAGUUAUCAGGCAUGCACCUGGUAGCUAGUCUUUAAACCAAUAGAUUGCAUCGGUUUAAAAGGCAAGACCGUCAAAUUGCGGGAAAGGGGUCAACAGCCGUUCAGUACCAAGUCUCAGGGGAAACUUUGAGAUGGCCUUGCAAAGGGUAUGGUAAUAAGCUGACGGACAUGGUCCUAACCACGCAGCCAAGUCCUAAGUCAACAGAUCUUCUGUUGAUAUGGAUGCAGUUCACAGACUAAAUGUCGGUCGGGGAAGAUGUAUUCUUCUCAUAAGAUAUAGUCGGACCUCUCCUUAAUGGGAGCUAGCGGAUGAAGUGAUGCAACACUGGAGCCGCUGGGAACUAAUUUGUAUGCGAAAGUAUAUUGAUUAGUUUUGGAGUACUCGUGGUCG
Outline: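 Colonies from six replicate transformations of E. coli BL21(DE3) were pooled and amplicon-sequenced on an Illumina HiSeq 2500. The library placed an intron with all eight P1ex-region nucleotides randomised inside the knt kanamycin-resistance gene on pET-22b(+), and cells grew overnight at 37°C or 30°C on LB agar with or without 25 μg/mL kanamycin (plus 100 μg/mL carbenicillin, 50 μM IPTG, 0.2% rhamnose). Fitness is the DiMSum error-weighted combination of wild-type-normalised replicate fold changes, kanamycin versus none.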

Sequence | self-splicing fitness (ln) (30 °C) | self-splicing fitness (ln) (37 °C)
CGUCAGCAAUAUUACGUGAG | -0.162 ± 0.04 | -0.124 ± 0.061
CGUCAGCAAUAUUACGUUAA | -3.28 ± 0.17 | -2.38 ± 0.14
CGUCAGCAAUAUUACGUUUA | -2.93 ± 0.18 | -1.66 ± 0.16
CGUCAGCAAUAUUACGUUUG | -1.14 ± 0.062 | -0.102 ± 0.079
CGUGAGCAAUAUUACGAACC | -1.44 ± 0.18 | -0.0387 ± 0.24
CGUGAGCAAUAUUACGAACU | -2.23 ± 0.3 | -0.177 ± 0.29
CGUGAGCAAUAUUACGAAGA | -1.53 ± 0.37 | –
CGUGAGCAAUAUUACGAGGG | -3.77 ± 0.3 | -2.36 ± 0.25
CGUGAGCAAUAUUACGCAGU | -3.4 ± 0.41 | -2.03 ± 0.44
CGUGAGCAAUAUUACGCGAG | -1.12 ± 0.21 | –
CGUGAGCAAUAUUACGGAGG | -2.69 ± 0.17 | -0.9 ± 0.14
CGUGAGCAAUAUUACGGGAU | -3.49 ± 0.22 | -2.24 ± 0.21
CGUGAGCAAUAUUACGGGUG | -0.878 ± 0.067 | -0.658 ± 0.078
CGUGAGCAAUAUUACGGUCC | -3.39 ± 0.24 | -1.69 ± 0.24
CGUGAGCAAUAUUACGGUGG | -2.03 ± 0.082 | -1.35 ± 0.1
CGUGAGCAAUAUUACGGUUG | -1.49 ± 0.07 | -0.412 ± 0.094
CGUGAGCAAUAUUACGUGGA | -3.06 ± 0.15 | -2.11 ± 0.14
CGUUAGCAAUAUUACGACAU | -1.529 ± 0.015 | -0.592 ± 0.033
CGUUAGCAAUAUUACGCGCU | -1.9 ± 0.2 | -1.73 ± 0.17
CGUUAGCAAUAUUACGCGUC | -3.47 ± 0.23 | –
CGUUAGCAAUAUUACGGCUA | -2.27 ± 0.37 | –
CGUUAGCAAUAUUACGGCUU | -0.864 ± 0.16 | -2.39 ± 0.31
CGUUAGCAAUAUUACGGGCA | -0.756 ± 0.15 | -1.2 ± 0.11
CGUUAGCAAUAUUACGGGUU | -3.4 ± 0.24 | -2.42 ± 0.25
CGUUAGCAAUAUUACGGUGA | -2.76 ± 0.21 | -0.883 ± 0.16

Sequence | self-splicing fitness (ln) (30 °C) | self-splicing fitness (ln) (37 °C)
CGUUAGCAAUAUUACGUCUA | -3 ± 0.28 | -2.33 ± 0.24
CGUUAGCAAUAUUACGUGGU | -4.09 ± 0.26 | -2.6 ± 0.28
CGUUAGCAAUAUUACGUGUU | -4.58 ± 0.22 | -3.04 ± 0.17
CUAAAGCAAUAUUACGAAUC | -4.03 ± 0.14 | -2.46 ± 0.16
CUAAAGCAAUAUUACGACAU | -3.986 ± 0.024 | -2.72 ± 0.039
CUAAAGCAAUAUUACGACCU | -4.28 ± 0.46 | -1.97 ± 0.22
CUAAAGCAAUAUUACGAGAU | -2.72 ± 0.16 | -2.05 ± 0.23
CUAAAGCAAUAUUACGAUCC | -2.81 ± 0.27 | -1.13 ± 0.36
CUAAAGCAAUAUUACGAUGA | -2.57 ± 0.11 | -0.323 ± 0.1
CUAAAGCAAUAUUACGAUUA | -2.51 ± 0.092 | -1.19 ± 0.12
CUAAAGCAAUAUUACGCAUC | -4.03 ± 0.35 | –
CUAAAGCAAUAUUACGCCAA | -4.58 ± 0.32 | -3.1 ± 0.37
CUAAAGCAAUAUUACGCCAG | -0.416 ± 0.13 | 0.13 ± 0.19
CUAAAGCAAUAUUACGCGAG | -0.464 ± 0.077 | 0.0633 ± 0.11
CUAAAGCAAUAUUACGCGGG | -2.27 ± 0.13 | -2.03 ± 0.15
CUAAAGCAAUAUUACGCGUA | -3.35 ± 0.18 | -2.63 ± 0.21
CUAAAGCAAUAUUACGCUAA | -5.16 ± 0.45 | –
CUAAAGCAAUAUUACGGCUA | -3.85 ± 0.21 | -2.34 ± 0.25
CUAAAGCAAUAUUACGGGCU | -4.47 ± 0.18 | -2.59 ± 0.16
CUAAAGCAAUAUUACGGGGA | -3.4 ± 0.16 | -1.96 ± 0.16
CUAAAGCAAUAUUACGUAGC | -3.73 ± 0.2 | -2.94 ± 0.37
CUACAGCAAUAUUACGAACA | -2.94 ± 0.18 | -2.49 ± 0.21
CUACAGCAAUAUUACGAAUG | -0.558 ± 0.059 | -0.464 ± 0.075
CUACAGCAAUAUUACGACAA | -2.42 ± 0.2 | -2.19 ± 0.21
